{"source": "the supplement of paper PMC9876800", "data": [{"test_system": "peptide library, one residue held at a place counted from the S/T acceptor", "assay": "relative phosphorylation of the sub-library (ratio to the mean residue at this position); human; higher = residue favoured", "details": "K fixed; at +2", "summary_of_the_method": "(§1)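 Relative sub-library phosphorylation is the ratio of each sub-library's signal to the mean residue at that position. The signal came from phosphorimaging of spots on streptavidin membranes, quantified by densitometry, after purified recombinant kinases reacted with biotinylated degenerate peptide sub-libraries in 384-well plates. Reactions held 50 μM peptide and 50 μM ATP spiked with γ-32P-ATP for 90 min under kinase-specific conditions.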", "values": [{"substance": "TTBK1, construct: Full length (from UniProt Q5TCY1)", "relative phosphorylation": 1.04}, {"substance": "CHEK2, construct: Full length (from UniProt O96017)", "relative phosphorylation": 1.12}, {"substance": "MAP4K3, construct: aa1-380 (from UniProt Q8IVH8)", "relative phosphorylation": 2.68}, {"substance": "CAMK1, construct: Full length (from UniProt Q14012)", "relative phosphorylation": 1.13}, {"substance": "MAP3K10, construct: aa1-449 (from UniProt Q02779)", "relative phosphorylation": 1.84}, {"substance": "EIF2AK1, construct: Full length (from UniProt Q9BQI3)", "relative phosphorylation": 1.74}, {"substance": "PKN3, construct: Full length (from UniProt Q6P5Z2)", "relative phosphorylation": 1.67}]}, {"test_system": "peptide library, one residue held at a place counted from the S/T acceptor", "assay": "relative phosphorylation of the sub-library (ratio to the mean residue at this position); human; higher = residue favoured", "details": "K fixed; at +3", "summary_of_the_method": "as §1", "values": [{"substance": "MOK, construct: aa1-343 (from UniProt Q9UQ07)", "relative phosphorylation": 1.15}, {"substance": "TTBK1, construct: Full length (from UniProt Q5TCY1)", "relative phosphorylation": 0.514}, {"substance": "CHEK2, construct: Full length (from UniProt O96017)", "relative phosphorylation": 1.16}, {"substance": "MAP4K3, construct: aa1-380 (from UniProt Q8IVH8)", "relative phosphorylation": 2.32}, {"substance": "CAMK1, construct: Full length (from UniProt Q14012)", "relative phosphorylation": 0.881}, {"substance": "MAP3K10, construct: aa1-449 (from UniProt Q02779)", "relative phosphorylation": 1.01}, {"substance": "EIF2AK1, construct: Full length (from UniProt Q9BQI3)", "relative phosphorylation": 1.59}, {"substance": "PKN3, construct: Full length (from UniProt Q6P5Z2)", "relative phosphorylation": 1.2}]}, {"test_system": "peptide library, one residue held at a place counted from the S/T acceptor", "assay": "relative phosphorylation of the sub-library (ratio to the mean residue at this position); human; higher = residue favoured", "details": "K fixed; at +4", "summary_of_the_method": "as §1", "values": [{"substance": "MOK, construct: aa1-343 (from UniProt Q9UQ07)", "relative phosphorylation": 1.44}, {"substance": "TTBK1, construct: Full length (from UniProt Q5TCY1)", "relative phosphorylation": 1.1}, {"substance": "CHEK2, construct: Full length (from UniProt O96017)", "relative phosphorylation": 1.33}, {"substance": "MAP4K3, construct: aa1-380 (from UniProt Q8IVH8)", "relative phosphorylation": 1.93}, {"substance": "CAMK1, construct: Full length (from UniProt Q14012)", "relative phosphorylation": 0.821}, {"substance": "MAP3K10, construct: aa1-449 (from UniProt Q02779)", "relative phosphorylation": 1.44}, {"substance": "EIF2AK1, construct: Full length (from UniProt Q9BQI3)", "relative phosphorylation": 1.49}, {"substance": "PKN3, construct: Full length (from UniProt Q6P5Z2)", "relative phosphorylation": 1.64}]}, {"test_system": "peptide library, one residue held at a place counted from the S/T acceptor", "assay": "relative phosphorylation of the sub-library (ratio to the mean residue at this position); human; higher = residue favoured", "details": "K fixed; at -1", "summary_of_the_method": "as §1", "values": [{"substance": "MOK, construct: aa1-343 (from UniProt Q9UQ07)", "relative phosphorylation": 1.61}, {"substance": "TTBK1, construct: Full length (from UniProt Q5TCY1)", "relative phosphorylation": 1.28}, {"substance": "CHEK2, construct: Full length (from UniProt O96017)", "relative phosphorylation": 1.71}, {"substance": "MAP4K3, construct: aa1-380 (from UniProt Q8IVH8)", "relative phosphorylation": 1.66}, {"substance": "CAMK1, construct: Full length (from UniProt Q14012)", "relative phosphorylation": 1.87}, {"substance": "MAP3K10, construct: aa1-449 (from UniProt Q02779)", "relative phosphorylation": 1.22}, {"substance": "EIF2AK1, construct: Full length (from UniProt Q9BQI3)", "relative phosphorylation": 0.796}, {"substance": "PKN3, construct: Full length (from UniProt Q6P5Z2)", "relative phosphorylation": 1.55}]}, {"test_system": "peptide library, one residue held at a place counted from the S/T acceptor", "assay": "relative phosphorylation of the sub-library (ratio to the mean residue at this position); human; higher = residue favoured", "details": "K fixed; at -2", "summary_of_the_method": "as §1", "values": [{"substance": "MOK, construct: aa1-343 (from UniProt Q9UQ07)", "relative phosphorylation": 0.8}, {"substance": "TTBK1, construct: Full length (from UniProt Q5TCY1)", "relative phosphorylation": 0.64}, {"substance": "CHEK2, construct: Full length (from UniProt O96017)", "relative phosphorylation": 1.53}, {"substance": "MAP4K3, construct: aa1-380 (from UniProt Q8IVH8)", "relative phosphorylation": 0.987}, {"substance": "CAMK1, construct: Full length (from UniProt Q14012)", "relative phosphorylation": 2.03}, {"substance": "MAP3K10, construct: aa1-449 (from UniProt Q02779)", "relative phosphorylation": 0.514}, {"substance": "EIF2AK1, construct: Full length (from UniProt Q9BQI3)", "relative phosphorylation": 0.648}, {"substance": "PKN3, construct: Full length (from UniProt Q6P5Z2)", "relative phosphorylation": 1.75}]}, {"test_system": "peptide library, one residue held at a place counted from the S/T acceptor", "assay": "relative phosphorylation of the sub-library (ratio to the mean residue at this position); human; higher = residue favoured", "details": "K fixed; at -3", "summary_of_the_method": "as §1", "values": [{"substance": "MOK, construct: aa1-343 (from UniProt Q9UQ07)", "relative phosphorylation": 1.27}, {"substance": "TTBK1, construct: Full length (from UniProt Q5TCY1)", "relative phosphorylation": 0.66}, {"substance": "CHEK2, construct: Full length (from UniProt O96017)", "relative phosphorylation": 2.26}, {"substance": "MAP4K3, construct: aa1-380 (from UniProt Q8IVH8)", "relative phosphorylation": 2.27}, {"substance": "CAMK1, construct: Full length (from UniProt Q14012)", "relative phosphorylation": 2.38}, {"substance": "MAP3K10, construct: aa1-449 (from UniProt Q02779)", "relative phosphorylation": 0.964}, {"substance": "EIF2AK1, construct: Full length (from UniProt Q9BQI3)", "relative phosphorylation": 0.864}, {"substance": "PKN3, construct: Full length (from UniProt Q6P5Z2)", "relative phosphorylation": 1.54}]}, {"test_system": "peptide library, one residue held at a place counted from the S/T acceptor", "assay": "relative phosphorylation of the sub-library (ratio to the mean residue at this position); human; higher = residue favoured", "details": "K fixed; at -4", "summary_of_the_method": "as §1", "values": [{"substance": "MOK, construct: aa1-343 (from UniProt Q9UQ07)", "relative phosphorylation": 1.43}, {"substance": "TTBK1, construct: Full length (from UniProt Q5TCY1)", "relative phosphorylation": 0.957}, {"substance": "CHEK2, construct: Full length (from UniProt O96017)", "relative phosphorylation": 1.63}, {"substance": "MAP4K3, construct: aa1-380 (from UniProt Q8IVH8)", "relative phosphorylation": 1.34}, {"substance": "CAMK1, construct: Full length (from UniProt Q14012)", "relative phosphorylation": 2.62}, {"substance": "MAP3K10, construct: aa1-449 (from UniProt Q02779)", "relative phosphorylation": 1.08}, {"substance": "EIF2AK1, construct: Full length (from UniProt Q9BQI3)", "relative phosphorylation": 0.998}, {"substance": "PKN3, construct: Full length (from UniProt Q6P5Z2)", "relative phosphorylation": 1.55}]}, {"test_system": "peptide library, one residue held at a place counted from the S/T acceptor", "assay": "relative phosphorylation of the sub-library (ratio to the mean residue at this position); human; higher = residue favoured", "details": "K fixed; at -5", "summary_of_the_method": "as §1", "values": [{"substance": "MOK, construct: aa1-343 (from UniProt Q9UQ07)", "relative phosphorylation": 1.36}, {"substance": "TTBK1, construct: Full length (from UniProt Q5TCY1)", "relative phosphorylation": 1.08}, {"substance": "CHEK2, construct: Full length (from UniProt O96017)", "relative phosphorylation": 0.694}, {"substance": "MAP4K3, construct: aa1-380 (from UniProt Q8IVH8)", "relative phosphorylation": 1.49}, {"substance": "CAMK1, construct: Full length (from UniProt Q14012)", "relative phosphorylation": 0.663}, {"substance": "MAP3K10, construct: aa1-449 (from UniProt Q02779)", "relative phosphorylation": 0.953}, {"substance": "EIF2AK1, construct: Full length (from UniProt Q9BQI3)", "relative phosphorylation": 1}, {"substance": "PKN3, construct: Full length (from UniProt Q6P5Z2)", "relative phosphorylation": 1.1}]}, {"test_system": "peptide library, one residue held at a place counted from the S/T acceptor", "assay": "relative phosphorylation of the sub-library (ratio to the mean residue at this position); human; higher = residue favoured", "details": "L fixed; at +1", "summary_of_the_method": "as §1", "values": [{"substance": "MOK, construct: aa1-343 (from UniProt Q9UQ07)", "relative phosphorylation": 0.204}, {"substance": "TTBK1, construct: Full length (from UniProt Q5TCY1)", "relative phosphorylation": 1.76}, {"substance": "CHEK2, construct: Full length (from UniProt O96017)", "relative phosphorylation": 1.41}, {"substance": "MAP4K3, construct: aa1-380 (from UniProt Q8IVH8)", "relative phosphorylation": 3.72}, {"substance": "CAMK1, construct: Full length (from UniProt Q14012)", "relative phosphorylation": 0.767}, {"substance": "MAP3K10, construct: aa1-449 (from UniProt Q02779)", "relative phosphorylation": 0.764}, {"substance": "EIF2AK1, construct: Full length (from UniProt Q9BQI3)", "relative phosphorylation": 1.08}, {"substance": "PKN3, construct: Full length (from UniProt Q6P5Z2)", "relative phosphorylation": 0.951}]}, {"test_system": "peptide library, one residue held at a place counted from the S/T acceptor", "assay": "relative phosphorylation of the sub-library (ratio to the mean residue at this position); human; higher = residue favoured", "details": "L fixed; at +2", "summary_of_the_method": "as §1", "values": [{"substance": "MOK, construct: aa1-343 (from UniProt Q9UQ07)", "relative phosphorylation": 0.822}, {"substance": "TTBK1, construct: Full length (from UniProt Q5TCY1)", "relative phosphorylation": 0.965}, {"substance": "CHEK2, construct: Full length (from UniProt O96017)", "relative phosphorylation": 0.851}, {"substance": "MAP4K3, construct: aa1-380 (from UniProt Q8IVH8)", "relative phosphorylation": 0.602}, {"substance": "CAMK1, construct: Full length (from UniProt Q14012)", "relative phosphorylation": 1.16}, {"substance": "MAP3K10, construct: aa1-449 (from UniProt Q02779)", "relative phosphorylation": 0.561}, {"substance": "EIF2AK1, construct: Full length (from UniProt Q9BQI3)", "relative phosphorylation": 0.747}, {"substance": "PKN3, construct: Full length (from UniProt Q6P5Z2)", "relative phosphorylation": 0.864}]}, {"test_system": "peptide library, one residue held at a place counted from the S/T acceptor", "assay": "relative phosphorylation of the sub-library (ratio to the mean residue at this position); human; higher = residue favoured", "details": "L fixed; at +3", "summary_of_the_method": "as §1", "values": [{"substance": "MOK, construct: aa1-343 (from UniProt Q9UQ07)", "relative phosphorylation": 0.848}, {"substance": "TTBK1, construct: Full length (from UniProt Q5TCY1)", "relative phosphorylation": 1.15}, {"substance": "CHEK2, construct: Full length (from UniProt O96017)", "relative phosphorylation": 1.02}, {"substance": "MAP4K3, construct: aa1-380 (from UniProt Q8IVH8)", "relative phosphorylation": 0.549}, {"substance": "CAMK1, construct: Full length (from UniProt Q14012)", "relative phosphorylation": 0.962}, {"substance": "MAP3K10, construct: aa1-449 (from UniProt Q02779)", "relative phosphorylation": 0.897}]}]}
